In article PMC4653696:

Experiments:
Test in all cases: FRET or BRET; 25 nM donor (AF555)-labelled octamers titrated with acceptor (AF647)-labelled octamers, serial dilutions from 100 nM; 45 mM KCl, 50 mM Tris-HCl pH 8.0; room temperature, 1 h equilibration; triplicate; PCA and curve fit; apparent Kd of end-to-end association of rods
[1] = target: Cdc11(E294C ΔCTE)-capped, otherwise Cys-less septin hetero-octamer (S. cerevisiae) (UniProt P32458)
[2] = target: Shs1(E344C)-capped, otherwise Cys-less septin hetero-octamer (Shs1-Cdc12-Cdc3-Cdc10-Cdc10-Cdc3-Cdc12-Shs1) (S. cerevisiae) (UniProt Q07657)
[3] = target: Shs1(E344C ΔCTE)-capped, otherwise Cys-less septin hetero-octamer (S. cerevisiae) (UniProt Q07657)
[4] = target: Cdc11(E294C)-capped, otherwise Cys-less septin hetero-octamer (Cdc11-Cdc12-Cdc3-Cdc10-Cdc10-Cdc3-Cdc12-Cdc11) (S. cerevisiae) (UniProt P32458)
Sequence of Cdc11(E294C)-capped, otherwise Cys-less septin hetero-octamer (Cdc11-Cdc12-Cdc3-Cdc10-Cdc10-Cdc3-Cdc12-Cdc11) (S. cerevisiae) (P32458 whole entry C43F/C137A/C138A/E294C, chain 1 of 4): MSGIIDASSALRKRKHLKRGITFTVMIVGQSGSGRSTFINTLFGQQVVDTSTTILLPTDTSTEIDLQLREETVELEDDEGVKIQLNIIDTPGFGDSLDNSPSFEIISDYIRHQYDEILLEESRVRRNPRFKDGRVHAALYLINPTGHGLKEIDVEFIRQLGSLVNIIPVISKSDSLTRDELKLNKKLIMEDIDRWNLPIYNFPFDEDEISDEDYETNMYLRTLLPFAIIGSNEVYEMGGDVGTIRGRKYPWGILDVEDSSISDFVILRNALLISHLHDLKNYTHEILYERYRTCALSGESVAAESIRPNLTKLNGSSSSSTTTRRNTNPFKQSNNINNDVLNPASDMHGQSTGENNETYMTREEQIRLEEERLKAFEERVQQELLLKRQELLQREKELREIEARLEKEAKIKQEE
Sequence of Cdc11(E294C)-capped, otherwise Cys-less septin hetero-octamer (Cdc11-Cdc12-Cdc3-Cdc10-Cdc10-Cdc3-Cdc12-Cdc11) (S. cerevisiae) (P32468 whole entry C40A/C278S, chain 2 of 4, further chain): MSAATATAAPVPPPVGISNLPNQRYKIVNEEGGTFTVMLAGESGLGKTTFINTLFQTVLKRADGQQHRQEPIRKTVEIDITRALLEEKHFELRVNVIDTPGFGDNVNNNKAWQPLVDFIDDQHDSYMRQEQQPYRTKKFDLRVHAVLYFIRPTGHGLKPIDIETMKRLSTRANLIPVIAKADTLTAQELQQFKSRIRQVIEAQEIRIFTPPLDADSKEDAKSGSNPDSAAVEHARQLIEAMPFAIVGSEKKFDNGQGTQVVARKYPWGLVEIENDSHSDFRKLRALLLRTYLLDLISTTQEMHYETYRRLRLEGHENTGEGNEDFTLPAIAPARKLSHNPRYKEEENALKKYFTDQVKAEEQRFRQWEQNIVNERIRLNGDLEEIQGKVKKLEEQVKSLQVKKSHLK
Sequence of Cdc11(E294C)-capped, otherwise Cys-less septin hetero-octamer (Cdc11-Cdc12-Cdc3-Cdc10-Cdc10-Cdc3-Cdc12-Cdc11) (S. cerevisiae) (P32457 other isoform, or with tags, fused parts or gaps E294C, chain 3 of 4, further chain): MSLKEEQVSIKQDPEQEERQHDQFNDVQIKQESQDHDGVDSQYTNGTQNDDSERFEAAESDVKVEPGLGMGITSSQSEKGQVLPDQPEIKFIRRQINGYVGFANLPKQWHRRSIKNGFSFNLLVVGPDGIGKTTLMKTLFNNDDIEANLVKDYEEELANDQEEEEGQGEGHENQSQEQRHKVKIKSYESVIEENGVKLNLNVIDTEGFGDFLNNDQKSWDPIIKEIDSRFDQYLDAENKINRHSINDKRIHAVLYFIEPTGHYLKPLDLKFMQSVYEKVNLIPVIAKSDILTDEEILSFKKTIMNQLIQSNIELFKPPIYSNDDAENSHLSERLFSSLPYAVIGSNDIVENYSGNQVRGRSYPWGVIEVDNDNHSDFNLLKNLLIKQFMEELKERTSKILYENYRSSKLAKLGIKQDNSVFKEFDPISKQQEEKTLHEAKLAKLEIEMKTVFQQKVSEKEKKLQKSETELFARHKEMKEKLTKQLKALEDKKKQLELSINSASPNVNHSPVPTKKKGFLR
Sequence of Cdc11(E294C)-capped, otherwise Cys-less septin hetero-octamer (Cdc11-Cdc12-Cdc3-Cdc10-Cdc10-Cdc3-Cdc12-Cdc11) (S. cerevisiae) (P25342 whole entry C266S, chain 4 of 4, further chain): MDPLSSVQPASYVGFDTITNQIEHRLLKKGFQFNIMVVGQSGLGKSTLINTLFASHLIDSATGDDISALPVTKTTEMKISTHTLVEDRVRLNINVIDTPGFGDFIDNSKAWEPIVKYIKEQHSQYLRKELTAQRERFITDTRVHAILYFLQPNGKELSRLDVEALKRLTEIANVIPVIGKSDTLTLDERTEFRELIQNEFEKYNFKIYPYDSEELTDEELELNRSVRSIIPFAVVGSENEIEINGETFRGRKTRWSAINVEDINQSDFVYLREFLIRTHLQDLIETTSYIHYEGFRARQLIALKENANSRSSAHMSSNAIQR

Sequence of Shs1(E344C)-capped, otherwise Cys-less septin hetero-octamer (Shs1-Cdc12-Cdc3-Cdc10-Cdc10-Cdc3-Cdc12-Shs1) (S. cerevisiae) (Q07657 whole entry C29V/C148S/E344C, chain 1 of 4): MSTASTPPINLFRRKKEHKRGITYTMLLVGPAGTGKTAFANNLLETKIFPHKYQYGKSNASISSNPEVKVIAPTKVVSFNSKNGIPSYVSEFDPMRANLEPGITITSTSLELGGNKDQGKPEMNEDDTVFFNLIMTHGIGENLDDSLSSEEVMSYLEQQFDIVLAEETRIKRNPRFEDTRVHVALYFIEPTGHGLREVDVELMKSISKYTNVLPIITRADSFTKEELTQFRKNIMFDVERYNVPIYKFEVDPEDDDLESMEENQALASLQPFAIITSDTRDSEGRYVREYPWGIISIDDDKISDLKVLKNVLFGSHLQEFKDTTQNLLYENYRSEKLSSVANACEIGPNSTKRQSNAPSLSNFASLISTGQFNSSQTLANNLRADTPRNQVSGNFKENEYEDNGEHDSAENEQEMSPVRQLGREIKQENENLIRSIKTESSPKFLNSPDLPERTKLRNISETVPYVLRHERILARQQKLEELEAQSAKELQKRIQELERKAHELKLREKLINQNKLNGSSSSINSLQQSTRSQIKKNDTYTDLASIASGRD
Sequence of Shs1(E344C)-capped, otherwise Cys-less septin hetero-octamer (Shs1-Cdc12-Cdc3-Cdc10-Cdc10-Cdc3-Cdc12-Shs1) (S. cerevisiae) (P32468 whole entry C40A/C278S, chain 2 of 4, further chain): as the sequence (P32468 whole entry C40A/C278S, chain 2 of 4, further chain) above
Sequence of Shs1(E344C)-capped, otherwise Cys-less septin hetero-octamer (Shs1-Cdc12-Cdc3-Cdc10-Cdc10-Cdc3-Cdc12-Shs1) (S. cerevisiae) (P32457 other isoform, or with tags, fused parts or gaps E344C, chain 3 of 4, further chain): as the sequence (P32457 other isoform, or with tags, fused parts or gaps E294C, chain 3 of 4, further chain) above
Sequence of Shs1(E344C)-capped, otherwise Cys-less septin hetero-octamer (Shs1-Cdc12-Cdc3-Cdc10-Cdc10-Cdc3-Cdc12-Shs1) (S. cerevisiae) (P25342 whole entry C266S, chain 4 of 4, further chain): as the sequence (P25342 whole entry C266S, chain 4 of 4, further chain) above
Sequence of Shs1(E344C ΔCTE)-capped, otherwise Cys-less septin hetero-octamer (S. cerevisiae) (Q07657 1-348 C29V/C148S/E344C, chain 1 of 4): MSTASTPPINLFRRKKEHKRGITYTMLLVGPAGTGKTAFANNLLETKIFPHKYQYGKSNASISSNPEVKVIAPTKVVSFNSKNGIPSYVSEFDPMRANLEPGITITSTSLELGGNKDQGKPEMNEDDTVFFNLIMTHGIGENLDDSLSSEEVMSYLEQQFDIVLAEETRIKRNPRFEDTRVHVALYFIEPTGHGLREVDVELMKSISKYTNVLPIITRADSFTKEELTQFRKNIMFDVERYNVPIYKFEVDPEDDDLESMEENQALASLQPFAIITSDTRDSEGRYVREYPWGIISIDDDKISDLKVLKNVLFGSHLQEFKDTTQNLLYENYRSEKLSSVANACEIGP
Sequence of Shs1(E344C ΔCTE)-capped, otherwise Cys-less septin hetero-octamer (S. cerevisiae) (P32468 whole entry C40A/C278S, chain 2 of 4, further chain): as the sequence (P32468 whole entry C40A/C278S, chain 2 of 4, further chain) above
Sequence of Shs1(E344C ΔCTE)-capped, otherwise Cys-less septin hetero-octamer (S. cerevisiae) (P32457 other isoform, or with tags, fused parts or gaps E344C, chain 3 of 4, further chain): as the sequence (P32457 other isoform, or with tags, fused parts or gaps E294C, chain 3 of 4, further chain) above
Sequence of Shs1(E344C ΔCTE)-capped, otherwise Cys-less septin hetero-octamer (S. cerevisiae) (P25342 whole entry C266S, chain 4 of 4, further chain): as the sequence (P25342 whole entry C266S, chain 4 of 4, further chain) above

Kd [1]: 17.7 nM | Kd [2]: 22.2 nM | Kd [3]: 22.8 nM | Kd [4]: 24.1 nM
Substance: Cdc11(E294C ΔCTE)-capped, otherwise Cys-less septin hetero-octamer (from UniProt P32458 1-305; P32468 1-407; P32457 1-520; P25342 1-322) (complex)
